Test results as given in publication PMC3341331 (PLoS Neglected Tropical Diseases, 2012).

Molecular target: recombinant E protein domain III of DENV-2, flag and hexahistidine tagged (Dengue virus type 2, strain 16681 …, UniProt P29990)
Assay: SPR
Details: both partners purified

B1: humanized DB32-6 monoclonal antibody (antibody, V domains shown)
VH: EVQLQQSGAELVKPGASVNLSCTASGFNIKDTYIHWVKQRPEQGLEWIGRIDPENGNAKYDPNFQAKATIAADTSSNTAYLQLSSLTSEDTAVYYCVRTGSFWYFDVWGQGTLVTVSS
VL: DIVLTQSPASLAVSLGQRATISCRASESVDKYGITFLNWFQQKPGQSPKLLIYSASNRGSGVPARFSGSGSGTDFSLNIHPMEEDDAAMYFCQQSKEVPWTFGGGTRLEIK
For B1, the Kd was 0.18 nM.
